The values that follow come from patent publication US20190055314A1 (ADAGENE, published 2019).

Positions count from the first letter of the chain named. Where two headings read alike, the source gives them in different places.

In test [1] the target is T1, CD137-hisFc fusion protein (Sino Biological Cat 10041-H03H) (human, UniProt Q07011 24-186).
T1 construct: Bought; also called recombinant human CD137 (fused with human Fc and His tag); not shown: His tag and human Fc
Kind of test: BLI Octet, Fab. For orientation: In BLI a coated tip is dipped into the sample, and binding shifts an interference pattern.

Test [2] deals with T1, CD137-hisFc fusion protein (Sino …). Kind of test: BLI Octet, Fab. This is another data set of the same source.
For test [3], the target named is T2, mouse CD137 fused with human FC fragment (mouse, UniProt P20334 24-178, limits assumed).
T2 construct: also called mouse CD137-Fc; not shown: human Fc fragment
T2 sequence: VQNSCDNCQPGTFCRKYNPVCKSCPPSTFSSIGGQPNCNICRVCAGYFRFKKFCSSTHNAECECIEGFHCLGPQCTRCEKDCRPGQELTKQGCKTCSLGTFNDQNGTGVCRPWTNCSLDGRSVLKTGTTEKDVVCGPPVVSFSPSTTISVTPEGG
The test is described as follows: ELISA, Fab captured by anti-human IgG (Fab specific), CD137-Fc added, anti-human Fc-HRP.

The target in test [4] is T3, human CD137-His6 (Sino Biological #10041-H08H) (human, UniProt Q07011 24-186).
T3 construct: Bought; also called human CD137 protein; not shown: His6 tag
Kind of test: SPR Biacore, IgG captured. A general note: In SPR one partner is held on a chip, and binding of the other changes the refractive index at the surface.

Test [5] concerns the target T4, Hu_GTF34AAA (human, UniProt Q07011 18-255).
T4 construct: On HEK293F; also called GFT34AAA
T4 chain: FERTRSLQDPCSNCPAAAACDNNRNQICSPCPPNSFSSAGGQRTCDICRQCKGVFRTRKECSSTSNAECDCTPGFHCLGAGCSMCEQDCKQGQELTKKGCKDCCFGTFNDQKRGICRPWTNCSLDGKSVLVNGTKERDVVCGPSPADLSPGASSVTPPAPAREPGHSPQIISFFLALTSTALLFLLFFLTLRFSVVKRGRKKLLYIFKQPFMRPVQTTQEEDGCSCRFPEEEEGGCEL
The test is described as follows: flow cytometry, HEK293F cells expressing CD137 or mutant [Cont.].

Test [6] addresses T5, Hu_FH92AA (human, UniProt Q07011 18-255).
T5 construct: On HEK293F
Described as above.

The target of test [7] is T6, Hu_FSS53AAA (human, UniProt Q07011 18-255).
T6 construct: On HEK293F
T6 chain: T4 chain with A17G, A18T, A19F, F36A, S37A, S38A
Described as above.

The target in test [8] is T7, Hu_FN125AA (human, UniProt Q07011 18-255).
T7 construct: On HEK293F
The description is as above.

Test [9] addresses T8, Hu_PW135AA (human, UniProt Q07011 18-255).
T8 construct: On HEK293F
Described as above.

The target in test [10] is T9, Hu_GT150AA (human, UniProt Q07011 18-255).
T9 construct: On HEK293F
The description is as above.

Test [11] concerns the target T10, Hu_CRD3 (human, limits assumed).
T10 construct: also called human CD137 CRD3
T10 chain: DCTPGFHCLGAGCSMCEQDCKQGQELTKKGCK
The test is described as follows: flow cytometry, yeast display [Cont.].

Test [12] has as its target T11, Hu_CRD4 (human, UniProt Q07011 119-159, limits assumed).
T11 construct: also called human CD137 CRD4
T11 chain: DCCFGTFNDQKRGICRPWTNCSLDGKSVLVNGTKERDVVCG
Kind of test: flow cytometry, yeast display [Cont.]. Background: In flow cytometry, cells or beads pass a laser one at a time.

The target in test [13] is T12, Hu_CRD1-CRD2 (human, UniProt Q07011 24-86, limits assumed).
T12 construct: also called two CRD units (CRD1-CRD2) of human CD137
The test is described as follows: flow cytometry, yeast display [Cont.].

For test [14], the target named is T13, Hu_CRD2-CRD3 (human, UniProt Q07011 46-118, limits assumed).
T13 construct: also called two CRD units (CRD2-CRD3) of human CD137
The test is described as follows: flow cytometry, yeast display [Cont.].

The target of test [15] is T14, rat CD137 on the cell surface (rat, UniProt Q4W8J3 24-258).
T14 sequence: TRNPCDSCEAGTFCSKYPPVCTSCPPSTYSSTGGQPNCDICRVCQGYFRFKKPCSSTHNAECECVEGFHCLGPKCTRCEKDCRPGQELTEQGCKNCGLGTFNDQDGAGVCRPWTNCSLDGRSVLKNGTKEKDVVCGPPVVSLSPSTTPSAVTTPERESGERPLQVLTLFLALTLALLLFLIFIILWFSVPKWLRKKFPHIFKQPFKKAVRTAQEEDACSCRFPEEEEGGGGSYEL
The test is described as follows: flow cytometry, HEK293F cells expressing CD137.

In test [16] the target is T15, mouse CD137 protein (Biacore) (mouse, UniProt P20334 24-178, limits assumed).
T15 construct: Construct used as SPR analyte not described
T15 sequence: T2 sequence
The test is described as follows: SPR Biacore.

Test [17] concerns the target T16, Hu_EL111AA (human, UniProt Q07011 18-255).
T16 construct: On HEK293F
Kind of test: flow cytometry, HEK293F.

Test [18] addresses T17, Hu_TN137AA (human, UniProt Q07011 18-255).
T17 construct: On HEK293F
Kind of test: flow cytometry, HEK293F.

In test [19] the target is T18, Hu_GQ109AA (human, UniProt Q07011 18-255).
T18 construct: On HEK293F
Kind of test: flow cytometry, HEK293F.

The target of test [20] is T19, Hu_CRD2-CRD3-CRD4 (human, UniProt Q07011 46-159, limits assumed).
T19 construct: also called three CRD units (CRD2-CRD3-CRD4) of human CD137
The test is described as follows: flow cytometry, yeast display [Cont.].

The target of test [21] is T20, Hu_CRD3-CRD4 (human, UniProt Q07011 87-159, limits assumed).
T20 construct: also called two CRD units (CRD3-CRD4) of human CD137
The test is described as follows: flow cytometry, yeast display [Cont.].

In test [22] the target is T21, Hu_CRD1-CRD2-CRD3 (human, UniProt Q07011 24-118, limits assumed).
T21 construct: also called three CRD units (CRD1-CRD2-CRD3) of human CD137
Kind of test: flow cytometry, yeast display [Cont.].

Test [23] addresses T22, Hu_CRD2 (human, UniProt Q07011 46-86, limits assumed).
T22 construct: also called human CD137 CRD2
T22 chain: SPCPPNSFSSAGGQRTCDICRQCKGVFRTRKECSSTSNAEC
The test is described as follows: flow cytometry, yeast display [Cont.].

Test [24] has as its target T23, full-length mouse CD137 on the cell surface (mouse, UniProt P20334 24-178).
T23 sequence: T2 sequence
Kind of test: flow cytometry, yeast display [Cont.].

Test [25] deals with T24, full-length human CD137 on the cell surface (human, UniProt Q07011 18-255).
T24 construct: also called Human WT
The test is described as follows: flow cytometry, yeast display [Cont.].

Test [26] deals with T23, full-length mouse CD137 on the cell …. The test is described as follows: flow cytometry, HEK293F cells expressing CD137 or mutant.
In test [27] the target is T24, full-length human CD137 on the cell …. The test is described as above.
The target is the same in test [28]. The test is described as follows: flow cytometry, HEK293F.
Test [29] shares this target. Kind of test: cell-based or functional assay.
Test [30] addresses T2, mouse CD137 fused with human FC fragment. The test is described as follows: ELISA, coated CD137-Fc.

B1: Fab 5351 (Fab, V domains shown)
VH: EVQLVESGGGLVQPGGSLRLSCAASGYSITSGHYWAWIRQAPGKGLEWVSSISGYGSTTYYADSVKGRFTISRDNSKNTLYLQLNSLRAEDTAVYYCARGGSDAVLGDWFAYWGQGTLVTVSS
VL: DIQLTQSPSSLSASVGDRVTITCRASQGIGSFLAWYQQKPGKAPKLLIYDASNLETGVPSRFSGSGSGTDFTLTISSLQPEDFATYYCQQGYYLWTFGQGTKVEIKR
notes: Fab from E. coli; also called VH25/VL25
For orientation: Kd means a measure of binding affinity in units of concentration. A low value points to higher affinity. Usually koff stands for the first-order rate constant of dissociation. By kon is commonly meant the second-order rate constant of association. Read a high kon as faster complex formation. With B1, in test [1], the affinity, expressed as Kd, was 7.3 nM; the koff amounted to 0.0034 s⁻¹; the kon was 470000 M⁻¹ s⁻¹. In test [2], the Kd was 7.29 nM, the koff stood at 0.0034 s⁻¹ and the kon turned out to be 466000 M⁻¹ s⁻¹. In addition, the binding result in [3] is “no binding”.

B2: AC1121 (antibody, V domains shown)
VH: QVQLQQWGAGLLKPSETLSLTCAVYGGSFSGYYWSWIRQSPEKGLEWIGEINHGGYVTYNPSLESRVTISVDTSKNQFSLKLSSVTAADTAVYYCARDYGPGNYDWYFDLWGRGTLVTVSS
VL: EIVLTQSPATLSLSPGERATLSCRASQSVSSYLAWYQQKPGQAPRLLIYDASNRATGIPARFSGSGSGTDFTLTISSLEPEDFAVYYCQQRSNWPPALTFGGGTKVEIK
B2: the values for the Kd in test [4] and in [28] were 9.6 nM and 3.3 nM, respectively. For the same molecule, the Mean turned out to be 8620 in test [5]; 16700 in [7]; 23100 in test [8]; 53900 in test [9]; 21300 in test [10]; 13900 in test [11]. Moreover, the Mean worked out at 6770 in test [12]; 26000 in test [13]; 12800 in [14]; 29500 in test [20]; 3460 in [21]; 46500 in test [22]. Also, the Mean is 4050 in test [23], 13100 in test [24] and 93600 in test [25]. The binding result in test [6] is “binds”; in test [15] it was “no binding (tested: 100 nM (text paragraph 220))”; in test [16] it was “no binding”; in test [17] it was “binds”; in test [18] it was “binds”; in test [19] it was “binds”. In addition, the results for the binding result in [26] and in test [30] were “no binding (tested: 100 nM (as in Example 5))” and “no binding”, respectively. In addition, the “% in upper right quadrant” value was determined as 0.22% in [11]; 0.15% in [12]; 51.4% in test [13]; 0.12% in test [14]; 0.42% in [20]; 0.18% in test [21]. The “% in upper right quadrant” value came to 57.2% in test [22]; 0.26% in test [23]; 0.4% in test [24]; 32.2% in test [25]; 27.8% in test [27]. In addition, the “NFκB reporter: EC50 (nM) With Cross-Linker” value in test [29] stood at 2.51 nM. Besides, the “NFκB reporter: EC50 (nM) Without Cross-Linker” value in test [29] is 1.27 nM.
